# Results from the DeepSol protein solubility set.
# Experiment: soluble on expression in E. coli; label from the status in PepcDB or PDB records
row,Sequence,soluble on expression in E. coli
1,SLTKPIGEKADPERLAAFLNEKGGNALSHLGFLGDKRFYFSSDGNALLLFGKIARRLVVLGDPSGQRESFPLVLEEFLNEAHQKGFSVLFYQIEREDMALYHDFGYNFFKLGEEAYVDLNTFTLTGKKKAGLRAINNRFEREEYTFHVDHPPFSDAFLEELKQISDEWLGSKKEKGFSLGFFDPSYLQKAPIAYMKNAEGEIVAFANVMPMYQEGEISVDLMRYRGDAPNGIMDALFIRMFLWAKEEGCTSFNMGMAPLANVGTAFTSFWSERFAAVIFNNVRYMYSFSGLRAFKEKYKPEWRGKYLAYRKNRSLSVTMFLVTRLIGKSKKDSV,soluble
2,SLTNITQCKNRRCGGELGDFTGYIESPNYPGNYPANTECTWTINPPPKRRILIVVPEIFLPIEDDCGDYLVMRKTSSSNSVTTYETCQTYERPIAFTSRSKKLWIQFKSNEGNSARGFQVPYVTYDEDYQELIEDIVRDGRLYASENHQEILKDKKLIKALFDVLAHPQNYFKYTAQESREMFPRSFIRLLRSKVSRFLRPYK,soluble
3,SLTRLEALKNIPRPAEECVEKTLNGEVPVDLFIARGHPNVRASNKRTLEVTKDVYLTRRGDCIIACCAEKAAGELSATVLEALMRSGLVVLIIDAGVVWDYVIGITPRSKPASKWRLVARKSNYVDDSTIAILADKAAYDLDRTLIRELKRGVPVRIIVGVCPGDSI,not soluble
4,SLVNPNQFKPLIVEQAKKQTGLDLVIEGDIGWQFFPSIGFELGKTELKNPQGFASPNLFKVESVGIDVSVMPLLDKQLKIGNIRLDGAEFHLETLKDGRSNLDALTQAQSKPASAPATTDSAPASQPSSSEPAAAWSIELGGVSVSNAVLEITDKKAGSHTKLYDVQLSVAEFVPDNWTKATFAAKGDKDQQKFAAQGEAEVRLSADFKQYALRNINLDASFSDPSNQIDSAKLKLDTFEFDKANALTFSVAGKAADMKLNAQGSASLMVNQAISKVGLDALKLQAELEGAALPQSPMKLSLDSQIAFDLTQNHLSVLLNKLTANALSFDGKADVTLADIPKVRFNLHSPEIDLDAFLGTKAQESQPAPAKEAAASSSSAPATNAPAEVEPDLSALKALDVAGEISIDKFKASNAHLQNVKANFAVNRGVVDLKSFTANLYQGSVQASAQVDARKTPATYSVKKQIKGVQVKPLLKDVLNNEMLEGTGNIDVNVQGQSLTPSGIQKNLVGTVAINFADGAVKGINVAHLIRTHYAKIKGQNVEEADAVKKTDFSAMTTTLKLNKGEVTTNDLNMQSPLLRIHGEGKANYLQQNVDFLVRTSIVGTLEGQGGKSLDELRDVTIPINISGAWSDPKFRLVFDDVLKQKAKKEVDRGVEKLTDKIKDEDTKKAVDGLLKGLFN,soluble
5,SLYANYKRVYENEALETLKVYTTFLRNALIEVNTLMVHSQHFYKSFMGNLKYILDSVAVNKLKSNYNKDMPVVVVSAGPSLEKNIRFLKDCQDKCIIITGGRTLKTLLDLDIKPDYVCVVDPDVPAYDVMRGTFDCTAPLLFCEYTYYEILRDYKGEKIFFNDIGMLGLQKEFLNYDVDNIFEGGSVAHVCAGLGVYIGGDPIIFIGQDLAYTNDKAHADSAGDTNVEGDKKIVYVEDINGDIIKSDSVLNFYRIKLEEMTQLFKENNFINSTEGGANIKGTKIIPLKEVLKKFCLNKKKDYTLGENIGKYVSREQVVCKLMDAKKIMNKVKKEIEASIDLCSEFLEKENRWNKTIIDNINRKLSKTDKLINSSIGEMEFMRNLILPNIYESSMNKEYKQKYNETEKEKIKRVYKKNILLYNGIKTSIMEAGPEIEKCIKSLKES,not soluble
6,SMAPKPGLDFSPFDFAHFGFPSDNSGKERSFQAKPSPKLGRHVYSRPKVDIQKICIGNKNIFTVSDLKPDTQYYFDVFVVNINSNMSTAYVGTFARTKEEAKQKTVELKDGKITDVFVKRKGAKFLRFAPVSSHQKVTFFIHSCLDAVQIQVRRDGKLLLSQNVEGIQQFQLRGKPKAKYLVRLKGNKKGASMLKILATTRPTKQSFPSLPEDTRIKAFDKLRTCSSATVAWLGTQERNKFCIYKKEVDDNYNEDQKKREQNQCLGPDIRKKSEKVLCKYFHSQNLQKAVTTETIKGLQPGKSYLLDVYVIGHGGHSVKYQSKVVKTRKFC,soluble
7,SMGGRRAVRVWCDGCYDMVHYGHSNQLRQARAMGDYLIVGVHTDEEIAKHKGPPVFTQEERYKMVQAIKWVDEVVPAAPYVTTLETLDKYNCDFCVHGNDITLTVDGRDTYEEVKQAGRYRECKRTQGVSTTDLVGRMLLVTKAHHSSQEMSSEYREYADSFGKCPGGRNPWTGVSQFLQTSQKIIQFASGKEPQPGETVIYVAGAFDLFHIGHVDFLEKVHRLAERPYIIAGLHFDQEVNHYKGKNYPIMNLHERTLSVLACRYVSEVVIGAPYAVTAELLSHFKVDLVCHGKTEIIPDRDGSDPYQEPKRRGIFRQIDSGSNLTTDLIVQRIITNRLEY,soluble
8,SMIPDFMSFTSHIDELYESAKKQSGGKVADYIPQLAKFSPDLWGVSVCTVDGQRHSTGDTKVPFCLQSCVKPLKYAIAVNDLGTEYVHRYVGKEPSGLRFNKLFLNEDDKPHNPMVNAGAIVVTSLIKQGVNNAEKFDYVMQFLNKMAGNEYVGFSNATFQSERESGDRNFAIGYYLKEKKCFPEGTDMVGILDFYFQLCSIEVTCESASVMAATLANGGFCPITGERVLSPEAVRNTLSLMHSCGMYDFSGQFAFHVGLPAKSGVAGGILLVVPNVMGMMCWSPPLDKMGNSVKGIHFCHDLVSLCNFHNYDNL,soluble
9,SMLSRAKPAVGGESPHTDKRKKKGRKIPKLEDLLSQRDFTGAITLLEFKRHVGEQEDDTNLWIGYCAFHLGDYKRALEEYENATKEENCNPEVWVNLACTYFFLGMYKQAEAAGFKAPKSRLQNRLLFHLAHKFNDEKKLMNFHQNLQDIKEDQLSLASNSEIHLPLPPECWD,soluble
10,SMPEQSNDYRVVVFGAGGVGKSSLVLRFVKGTFRDTYIPTIEDTYRQVISCDKSVCTLQITDTTGSHQFPAMQRLSISKGHAFILVFSVTSKQSLEELGPIYKLIVQIKGSVEDIPVMLVGNKCDETQREVDTREAQAVAQEWKCAFMETSAKMNYNVKELFQELLTLETRRNMSLNIDGKRSGKQKRTDRVKGKCTLM,soluble
11,SMQELFNNLMELCKDSQRKFFYSDDVSASGRTYRIFSYNYASYSDWLLPDALECRGIMFEMDGEKPVRIASRPMEKFFNLNENPFTMNIDLNDVDYILTKEDGSLVSTYLDGDEILFKSKGSIKSEQALMANGILMNINHHRLRDRLKELAEDGFTANFEFVAPTNRIVLAYQEMKIILLNVRENETGEYISYDDIYKDATLRPYLVERYEIDSPKWIEEAKNAENIEGYVAVMKDGSHFKIKSDWYVSLHSTKSSLDNPEKLFKTIIDGASDDLKAMYADDEYSYRKIEAFETTYLKYLDRALFLVLDCHNKHCGKDRKTYAMEAQGVAKGAGMDHLFGIIMSLYQGYDSQEKVMCEIEQNFLKNYKKFIPEGY,soluble
12,SMTLTLNRQLLTSRQILVAFSGGLDSTVLLHQLVQWRTENPGVALRAIHVHHGLSANADAWVTHCENVCQQWQVPLVVERVQLAQEGLGIEAQARQARYQAFARTLLPGEVLVTAQHLDDQCETFLLALKRGSGPAGLSAMAEVSEFAGTRLIRPLLARTRGELVQWARQYDLRWIEDESNQDDSYDRNFLRLRVVPLLQQRWPHFAEATARSAALCAEQESLLDELLADDLAHCQSPQGTLQIVPMLAMSDARRAAIIRRWLAGQNAPMPSRDALVRIWQEVALAREDASPCLRLGAFEIRRYQSQLWWIKSVTGQSENIVPWQTWLQPLELPAGLGSVQLNAGGDIRPPRADEAVSVRFKAPGLLHIVGRNGGRKLKKIWQELGVPPWLRDTTPLLFYGETLIAAAGVFVTQEGVAEGENGVSFVWQKTLS,soluble
13,SNADRRYKWQTVVSEQLVGAGFNEILNNSLTAGSYYEGLKSHPREMAVELMNPLSQELNCMRQTLLFGGLETLSHNLRRKHLSLYLFEWGKCYRFHAAKRTDETPLAAYAEDDRLGIWICGQRVHNSWAHPEEPTSVFELKAVVEQVLCRVGIETGAYTLKTADNDLYASAMEVKTRSGKLLGTFGTVSTELIKRFEIEQPVYFAELLWDALM,soluble
14,SNAMIYPDETMLYAPVEWHDCSEGYTDIRYEKSTDGIAKITINRPQVRNAFRPLTVKEMIQALADARYDDNVGVIILTGEGDKAFCAGGDQKVRGDYGGYQDDSGVHHLNVLDFQRQIRTCPKPVVAMVAGYSIGGGHVLHMMCDLTIAAENAIFGQTGPKVGSFDGGWGASYMARIVGQKKAREIWFLCRQYDAQQALDMGLVNTVVPLADLEKETVRWCREMLQNSPMALRCLKAALNADCDGQAGLQELAGNATMLFYMTEEGQEGRNAFNQKRQPDFSKFKRNP,soluble
